The record followed here is article PMC5456370, “Bacterial co-expression of human Tau protein with protein kinase A and 14-3-3 for studies of 14-3-3/phospho-Tau interaction” (PLoS ONE, 2017).

This data set concerns the molecule itself. The experiment in a line: native gel or EMSA; purified 14-3-3 isoforms (14 μM per monomer) without or with PKA (2 μM) in 50 mM Hepes-NaOH pH 7.3, 10 mM NaCl, 4 mM MgCl2, 60 μM ATP, 2 h at 30°C; non-denaturing 15% gel, pH 8.6; dimer and monomer regions of the gel.

B1: untagged human 14-3-3σ devoid of the C-terminal flexible peptide (residues 232-248) (domain or fragment, UniProt P31947 1-231, looked up)
chain: MERASLIQKAKLAEQAERYEDMAAFMKGAVEKGEELSCEERNLLSVAYKNVVGGQRAAWRVLSSIEQKSNEEGSEEKGPEVREYREKVETELQGVCDTVLGLLDSHLIKEAGDAESRVFYLKMKGDYYRYLAEVATGDDKKRIIDSARSAYQEAMDISKKEMPPTNPIRLGLALNFSVFHYEIANSPEEAISLAKTTFDEAMADLHTLSEDSYKDSTLIMQLLRDNLTLWT
notes: human 14-3-3 protein sigma, Uniprot P31947, residues 1-231 out of 248; also called 14-3-3σΔC; σΔC; source: purified (ammonium sulfate fractionation, anion-exchange and gel-filtration chromatography); also E. coli BL21(DE3), co-expressed with Tau and PKA, in lysate
Regarding B1, the binding result is listed as “binds”.

B2: full-length human 14-3-3γ (natural protein, UniProt P61981 1-247, looked up)
chain: MVDREQLVQKARLAEQAERYDDMAAAMKNVTELNEPLSNEERNLLSVAYKNVVGARRSSWRVISSIEQKTSADGNEKKIEMVRAYREKIEKELEAVCQDVLSLLDNYLIKNCSETQYESKVFYLKMKGDYYRYLAEVATGEKRATVVESSEKAYSEAHEISKEHMQPTHPIRLGLALNYSVFYYEIQNAPEQACHLAKTAFDDAIAELDTLNEDSYKDSTLIMQLLRDNLTLWTSDQQDDDGGEGNN
notes: human 14-3-3 protein gamma, Uniprot P61981, full length
Regarding B2, the binding result is listed as “binds”.
